Source: article PMC8926328

Biological target: HBsAg-SpyCatcher VLPs (hepatitis B virus)
Assay: SDS-PAGE of the covalent conjugate

RBD-SpyTag (from UniProt P0DTC2) (domain or fragment)
fraction unconjugated: < 20%
